T1: CCL18_HUMAN (human, UniProt P55774 21-89)
T1 chain: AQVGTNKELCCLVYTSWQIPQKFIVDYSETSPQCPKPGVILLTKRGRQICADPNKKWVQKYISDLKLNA

T2: CCL4 (human, UniProt P13236 24-92)
T2 chain: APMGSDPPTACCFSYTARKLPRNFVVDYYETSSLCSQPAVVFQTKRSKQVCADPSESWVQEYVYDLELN

T3: CCL3_HUMAN (human, UniProt P10147 24-92)
T3 chain: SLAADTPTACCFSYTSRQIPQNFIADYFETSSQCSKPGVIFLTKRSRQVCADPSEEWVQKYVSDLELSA

B1: CCL17_HUMAN (ligand)
chain: ARGTNVGRECCLEYFKGAIPLRKLKTWYQTSEDCSRDAIVFVTVQGRAICSDPNNKRVKNAVKYLQSLERS
B2: CCL5_HUMAN (ligand)
chain: SPYSSDTTPCCFAYIARPLPRAHIKEYFYTSGKCSNPAVVFVTRKNRQVCANPEKKWVREYINSLEMS
B3: CCL15_HUMAN (ligand)
chain: QFTNDAETELMMSKLPLENPVVLNSFHFAADCCTSYISQSIPCSLMKSYFETSSECSKPGVIFLTKKGRQVCAKPSGPGVQDCMKKLKPYSI
B4: P1181_AMBMA (other)
chain: EEREDDNDYGGGCPFVVLGNGTHAKPAGCSHLCNGAPETLDNIECYNVTEEVAKRMTPDIPYTCWLGWCSKGECKRDNRTEVCYRGSERE
B5: CCL8_HUMAN (ligand)
chain: QPDSVSIPITCCFNVINRKIPIQRLESYTRITNIQCPKEAVIFKTKRGKEVCADPKERWVRDSMKHLDQIFQNLKP
B6: CCL11_HUMAN (ligand)
chain: not shown
B7: P983_AMBCA (other)
chain: EDTGTEDDFDYGNTGCPFPVLGNYKSNMTKPVGCKNKCGSGYEVLNDTTPCYVIDQKVFNNMVPLRQYSKCPLGFCENGECKPNDQAEDCYKGREEQK
B8: P983_AMBPA (other)
chain: B7 chain
B9: CCL19_HUMAN (ligand)
chain: GTNDAEDCCLSVTQKPIPGYIVRNFHYLLIKDGCRVPAVVFTTLRGRQLCAPPDQPWVERIIQRLQRTSAKMKRRSS
B10: P1183_AMBTR (other)
chain: EAPKDDFEYDGGCPFVVLDNGTHVKPAGCSHLCNGAPETLDNIECYNVTEEVAKRMTPGIPYACWLGWCSKGECKRDNRTEVCYRGSEEE
B11: P1180_AMBTR (other)
chain: EEPKDGYDYTEGCPFVVLGNGTHAKPAGCSHLCNGAPETLDDNMECYNVTEEVAKRMTPDIPYTCWLGWCSKGECKRDNRTEVCYRGSERE
B12: CCL1_HUMAN (ligand)
chain: KSMQVPFSRCCFSFAEQEIPLRAILCYRNTSSICSNEGLIFKLKRGKEACALDTVGWVQRHRKMLRHCPSKRK

Tests used:
EVASIN4 = experiment: -; previously described evasin
CCL8_HUMAN = molecular target: B5; experiment: BLI
CCL11_HUMAN = molecular target: B6; experiment: BLI
CCL18_HUMAN = molecular target: T1, CCL18_HUMAN; experiment: BLI
CCL4 = molecular target: T2, CCL4; experiment: BLI
CCL2_HUMAN = CCL2_HUMAN (human, UniProt P13500 24-99); experiment: BLI
Sequence of CCL2_HUMAN (P13500 24-99): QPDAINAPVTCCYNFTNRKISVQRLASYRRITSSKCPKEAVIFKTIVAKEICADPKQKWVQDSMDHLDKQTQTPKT

CCL3_HUMAN = molecular target: T3, CCL3_HUMAN; experiment: BLI
CCL3L1_HUMAN = experiment: BLI
CCL14_HUMAN = experiment: BLI
CCL13_HUMAN = experiment: BLI
CCL4L1_HUMAN = experiment: BLI
CCL7_HUMAN = experiment: BLI

Binder: B1
- Kd (EVASIN4): 0.61 nM

Binder: B2
- Kd (EVASIN4): 0.09 nM

Binder: B3
- Kd (EVASIN4): 2.31 nM

Binder: B4
- Kd (CCL8_HUMAN): 119 nM
- Kd (CCL11_HUMAN): 19.5 nM
- Kd (CCL18_HUMAN): 10 nM
- Kd (CCL4): 53 nM
- Kd (CCL2_HUMAN): 2.21 nM
- Kd (CCL3_HUMAN): 3.29 nM
- Kd (CCL3L1_HUMAN): 100 nM
- Kd (CCL14_HUMAN): 47 nM
- Kd (CCL13_HUMAN): 19 nM
- Kd (CCL4L1_HUMAN): 13.5 nM
- Kd (CCL7_HUMAN): 35 nM

Binder: B5
- Kd (EVASIN4): 0.25 nM

Binder: B6
- Kd (EVASIN4): 0.34 nM

Binder: B7
- Kd (CCL8_HUMAN): 6.99 nM
- Kd (CCL11_HUMAN): 18 nM
- Kd (CCL4): 8.03 nM
- Kd (CCL2_HUMAN): 13.9 nM
- Kd (CCL3_HUMAN): 3.51 nM

Binder: B8
- Kd (CCL3L1_HUMAN): 2.08 nM
- Kd (CCL14_HUMAN): 81 nM
- Kd (CCL13_HUMAN): 17.3 nM
- Kd (CCL4L1_HUMAN): 2.86 nM
- Kd (CCL7_HUMAN): 32.1 nM

Binder: B9
- Kd (EVASIN4): 0.14 nM

Binder: B10
- Kd (CCL8_HUMAN): 1130 nM
- Kd (CCL11_HUMAN): 8.47 nM
- Kd (CCL4): 78.3 nM
- Kd (CCL2_HUMAN): 11.9 nM
- Kd (CCL3L1_HUMAN): 110 nM
- Kd (CCL13_HUMAN): 5.67 nM
- Kd (CCL4L1_HUMAN): 48.4 nM
- Kd (CCL7_HUMAN): 5.38 nM

Binder: B11
- Kd (CCL8_HUMAN): 3.63 nM
- Kd (CCL11_HUMAN): 32.5 nM
- Kd (CCL18_HUMAN): 5.78 nM
- Kd (CCL4): 66 nM
- Kd (CCL2_HUMAN): 53 nM
- Kd (CCL3_HUMAN): 1.07 nM
- Kd (CCL3L1_HUMAN): 2.19 nM
- Kd (CCL14_HUMAN): 4.4 nM
- Kd (CCL13_HUMAN): 8.96 nM
- Kd (CCL4L1_HUMAN): 19.5 nM
- Kd (CCL7_HUMAN): 98 nM

Binder: B12
- Kd (EVASIN4): 0.2 nM

From patent US20220175942A1 (published 2022)
